B1: M1R9C1 36-mer (ssRNA)
RNA: UGCCUGACCACUCAGAAUCGAGCGCAUUGGCCGGCA
B2: M1R9C6 36-mer (ssRNA)
RNA: UGCCCUGACCAUCCUGAGGGACGCAUUGGCCGGGCA

Molecular target: Nucleoprotein (NP) (Influenza A virus, UniProt P03466 SEQ:1-498)
Assay: SPR; 2 uM, 22 C
Details: tags: His tag (pET28a, Co2+ resin purification), E. coli; label: 5'-amino-C12 linker (microarray); hairpin with bulge, internal loop and lateral small hairpin

Sequence of Nucleoprotein (NP) (P03466 whole entry): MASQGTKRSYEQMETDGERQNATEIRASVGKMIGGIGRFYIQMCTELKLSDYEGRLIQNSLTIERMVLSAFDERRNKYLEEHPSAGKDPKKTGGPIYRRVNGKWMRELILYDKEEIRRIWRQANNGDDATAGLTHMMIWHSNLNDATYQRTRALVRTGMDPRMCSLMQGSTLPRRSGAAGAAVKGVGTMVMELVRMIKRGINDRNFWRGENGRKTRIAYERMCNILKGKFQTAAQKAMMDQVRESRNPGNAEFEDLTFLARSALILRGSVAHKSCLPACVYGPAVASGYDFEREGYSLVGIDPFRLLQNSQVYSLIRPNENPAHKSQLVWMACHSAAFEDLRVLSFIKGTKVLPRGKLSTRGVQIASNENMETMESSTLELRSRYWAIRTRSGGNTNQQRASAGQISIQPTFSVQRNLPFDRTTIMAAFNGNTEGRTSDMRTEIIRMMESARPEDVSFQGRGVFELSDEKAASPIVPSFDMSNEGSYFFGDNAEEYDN

Binder	binding result
B1	no binding
B2	no binding

— patent US20120295811, “APTAMERS DIRECTED AGAINST THE MATRIX PROTEIN-1 OF TYPE A INFLUENZA VIRUSES AND USES […]” (published 2012)
